Several values for one entry are separate records, joined by “and”; a condition that tells them apart may be missing. Equal values may be shown once.
Target: the molecule itself
Experiment: cryo-EM structure

B1: FliF (flagellar MS-ring protein) from Salmonella enterica serovar Typhimurium (natural protein)
chain: MSATASTATQPKPLEWLNRLRANPRIPLIVAGSAAVAIVVAMVLWAKTPDYRTLFSNLSDQDGGAIVAQLTQMNIPYRFANGSGAIEVPADKVHELRLRLAQQGLPKGGAVGFELLDQEKFGISQFSEQVNYQRALEGELARTIETLGPVKSARVHLAMPKPSLFVREQKSPSASVTVTLEPGRALDEGQISAVVHLVSSAVAGLPPGNVTLVDQSGHLLTQSNTSGRDLNDAQLKFANDVESRIQRRIEAILSPIVGNGNVHAQVTAQLDFANKEQTEEHYSPNGDASKATLRSRQLNISEQVGAGYPGGVPGALSNQPAPPNEAPIATPPTNQQNAQNTPQTSTSTNSNSAGPRSTQRNETSNYEVDRTIRHTKMNVGDIERLSVAVVVNYKTLADGKPLPLTADQMKQIEDLTREAMGFSDKRGDTLNVVNSPFSAVDNTGGELPFWQQQSFIDQLLAAGRWLLVLVVAWILWRKAVRPQLTRRVEEAKAAQEQAQVRQETEEAVEVRLSKDEQLQQRRANQRLGAEVMSQRIREMSDNDPRVVALVIRQWMSNDHE
stoichiometry N: 33 and 34 and 32 and 35
